Data taken from the supplement of paper PMC10266784.

B1: library; numbered along this chain (parent)
chain: MAAAAAAAAEQQSSNGPVKKSMREKAVERRSVNKEHNSNFKAGYIPIDEDRLHKTGLRGRKGNLAICVIILLFILAVINLIITLVIWAVIRIGPNGCDSMEFHESGLLRFKQVSDMGVIHPLYKSTVGGRRNENLVITGNNQPIVFQQGTTKLSVENNKTSITSDIGMQFFDPRTQNILFSTDYETHEFHLPSGVKSLNVQKASTERITSNATSDLNIKVDGRAIVRGNEGVFIMGKTIEFHMGGNMELKAENSIILNGSVMVSTTRLPSSSSGDQLGSGDWVRYKLCMCADGTLFKVQVTSQNMGCQISDNPCGNTH

Variants of: B1
Assay: SGCB cell-surface expression functional score (HA stain, bin4 vs bin1, normalised to synonymous) (log10 ratio); higher = more cell-surface SGCB (functional)
How it was run: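 Codon-saturation libraries of HA-tagged, YFP-fused human beta-sarcoglycan were lentivirally transduced at MOI <0.1 into HEK293 cells stably expressing alpha-, gamma- and delta-sarcoglycan. YFP-positive cells were sorted after 72 hours, grown 5–7 days, stained on ice with Alexa Fluor 647 anti-HA, fixed, sorted into four 5% intensity bins and amplicon-sequenced. The functional score is the log ratio of highest-bin to lowest-bin variant frequency, taken as the median over codons and duplicate transductions. Synonymous variants were scaled per section to mean 0, SD 0.5.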

SGCB cell-surface expression functional score (log10), by site and new letter:
M116: F 0.29; Y -1.63; G -1.48; D -0.59; Q -1.26; S -1.38; V -1.02; T -0.8; P -1.45; R -1.55; I -1.03; C -1.02; H -1.7; K -1.21; W -1.47; A -1.24; L 0.08; N -1.13; E -1.47
V113: S -0.27; W -1.16; T -0.1; Y -0.42; R -0.07
P121: S 0.12; C 0.36; A -0.17; Q -0.72; Y -0.96; T -0.36; R -1; D -0.76; W -0.71; M -0.6; V 0.5; H -0.14; E -1.17; G -0.47; F 0.33; I -0.16; N 0.38; K -0.78; L 0.04
V118: G -0.31; I 0.32; R -0.19; N -0.97; E -0.21; L -0.05; K 0.64; M -0.05; P -0.73; Q -0.24; A -0.02; T 0.29; S 0.19; W 0.32; F -0.06; D -0.11; Y -0.32; H -0.23; C 0.74
S114: L -1.15; K -1.22; W -0.55; F -0.89; A 0.55; H -1.62; I 0.12; C 0.01; N -0.49; E -0.49; R -1.39; V -0.22; Y -1.47; M -0.25; Q -1.66; P -0.77; G -0.7; T -0.37; D -1.53
G117: M -0.46; C -0.28; W -1.14; T -0.96; D -0.32; I -1.22; E -0.94; A -0.7; S -0.38; K -1.66; N 0.02; H -0.9; V -1.36; L -1.42; Q -1.06; R -0.86; Y -1.35; F -1.46; P -1.21
H120: Y 0.03; S 0.28; A -0.12; L 0.39; Q -0.03; W 0.14; I 0.16; D -0.59; N 0.06; K -0.13; C 0.35; P -1.27; T 0.44; V -0.04; R 0.35; E -0.09; F 0.08; G -1.08; M -0.63
L122: I 0.65; F -0.12; K -0.12; H 0.55; G 0.45; D 0.28; M 0.05; C 0.06; E 0.35; A -0.03
I119: K -1.36; D -0.97; W -1.04; M 0.58; V -0.21; E -1.16; Y -1.14; T -0.97; F -1.3; S -1.47; N -1.15; H -1.49; P -0.94; L -0.19; R -0.88; Q -1.26; C -0.49; A -0.49; G -0.96
D115: C -1.36; F -1.29; L -1.17; P -1.39; Y -0.03; M -1.51; I -0.89; G -1.39; N -0.27; K -0.97; A -1.73; W -1.77; E -0.54; H -0.53; T -1.39; R -1.16; S -1.55; V -0.75; Q -0.98
